Measured values from patent publication US7998940B2, “Aptamers to von Willebrand factor and their use as thrombotic disease therapeutics” (Archemix Corp., priority 2004, dated 2011).
Residue numbers refer to the chain shown, from its start.

B1: AMX199.F8: DNA SELEX 1 aptamer clone (nucleic acid)
DNA: CTACCTACGATCTGACTAGCAAGGGGATTGGCTCCGGGTCTGGCGTGCTTGGCACCTCTGGCTTACTCTCATGTAGTTCC
modifications: DNA, backbone not given here
notes: DNA SELEX 1 aptamer clone
B2: AMX199.D8: DNA SELEX 1 aptamer clone (nucleic acid)
DNA: B1 DNA with C55T, C58T, T59C
modifications: DNA, backbone not given here
notes: DNA SELEX 1 aptamer clone
B3: AMX199.B6: DNA SELEX 1 aptamer clone (nucleic acid)
DNA: B1 DNA with C53T, T59C
modifications: DNA, backbone not given here
notes: DNA SELEX 1 aptamer clone
B4: AMX200.E10: DNA SELEX 1 aptamer clone (nucleic acid)
DNA: B1 DNA with T50C, C58T
modifications: DNA, backbone not given here
notes: DNA SELEX 1 aptamer clone
B5: AMX202.A8: DNA SELEX 1 aptamer clone (nucleic acid)
DNA: B1 DNA with T50C, C56T, T59C
modifications: DNA, backbone not given here
notes: DNA SELEX 1 aptamer clone
B6: AMX202.F6: DNA SELEX 1 aptamer clone (nucleic acid)
DNA: B1 DNA with T50C, C58T, T59C
modifications: DNA, backbone not given here
notes: DNA SELEX 1 aptamer clone
B7: AMX200.A11: DNA SELEX 1 aptamer clone (nucleic acid)
DNA: CTACCTACGATCTGACTAGCTGAGTAGTTAGTAACTTTTTATTATGGTTTGGTGGGTCTGGCTTACTCTCATGTAGTTCC
modifications: DNA, backbone not given here
notes: DNA SELEX 1 aptamer clone
B8: AMX200.H8: DNA SELEX 1 aptamer clone (nucleic acid)
DNA: B7 DNA with T29C, C35T, T57C
modifications: DNA, backbone not given here
notes: DNA SELEX 1 aptamer clone
B9: AMX199.F10: DNA SELEX 1 aptamer clone (nucleic acid)
DNA: CTACCTACGATCTGACTAGCGAAACACTAGGTTGGTTAGGATTGGTGTGTTTCCGTTCTGCTTACTCTCATGTAGTTCC
modifications: DNA, backbone not given here
notes: DNA SELEX 1 aptamer clone
B10: AMX199.F11: DNA SELEX 1 aptamer clone (nucleic acid)
DNA: B9 DNA with C54T, T56C
modifications: DNA, backbone not given here
notes: DNA SELEX 1 aptamer clone
B11: AMX199.G1: DNA SELEX 1 aptamer clone (nucleic acid)
DNA: B9 DNA with T52C, T56C, C58T
modifications: DNA, backbone not given here
notes: DNA SELEX 1 aptamer clone
B12: AMX199.H7: DNA SELEX 1 aptamer clone (nucleic acid)
DNA: B9 DNA with T56C, C58T
modifications: DNA, backbone not given here
notes: DNA SELEX 1 aptamer clone
B13: AMX199.A10: DNA SELEX 1 aptamer clone (nucleic acid)
DNA: B9 DNA with A22G, T52C, C58T
modifications: DNA, backbone not given here
notes: DNA SELEX 1 aptamer clone
B14: AMX199.G4: DNA SELEX 1 aptamer clone (nucleic acid)
DNA: B9 DNA with T52C, T56C, C58A
modifications: DNA, backbone not given here
notes: DNA SELEX 1 aptamer clone
B15: AMX199.F1: DNA SELEX 1 aptamer clone (nucleic acid)
DNA: B9 DNA with T52C, T56C, C58A
modifications: DNA, backbone not given here
notes: DNA SELEX 1 aptamer clone
B16: AMX199.F6: DNA SELEX 1 aptamer clone (nucleic acid)
DNA: B9 DNA with T52C, T56C
modifications: DNA, backbone not given here
notes: DNA SELEX 1 aptamer clone
B17: AMX199.G5: DNA SELEX 1 aptamer clone (nucleic acid)
DNA: B9 DNA with T52C, T56C, T57C
modifications: DNA, backbone not given here
notes: DNA SELEX 1 aptamer clone
B18: AMX200.E8: DNA SELEX 1 aptamer clone (nucleic acid)
DNA: CTACCTACGATCTGACTAGCGGAATGAGGATGCTGGTGGATTGCTCAGGTCTGTTGGCTGCTTACTCTCATGTAGTTCC
modifications: DNA, backbone not given here
notes: DNA SELEX 1 aptamer clone
B19: AMX202.D6: DNA SELEX 1 aptamer clone (nucleic acid)
DNA: B18 DNA with G29A, T31G, G36A, T54C
modifications: DNA, backbone not given here
notes: DNA SELEX 1 aptamer clone
B20: AMX202.A3: DNA SELEX 1 aptamer clone (nucleic acid)
DNA: B18 DNA with G29A, A30G, T31C, G36A, T54C
modifications: DNA, backbone not given here
notes: DNA SELEX 1 aptamer clone
B21: AMX202.B8: DNA SELEX 1 aptamer clone (nucleic acid)
DNA: B18 DNA with G29T, G36A, T54C
modifications: DNA, backbone not given here
notes: DNA SELEX 1 aptamer clone
B22: AMX202.H10: DNA SELEX 1 aptamer clone (nucleic acid)
chain: B18 DNA with G29A, T31G, T54C
modifications: DNA, backbone and methylation of C not given here
notes: DNA SELEX 1 aptamer clone

target: human vWF A1 domain (SEQ ID NO 5) (Homo sapiens, UniProt P04275, T1381A); assay: 3-point dot blot screen, human vWF A1 domain; type: binding; conditions: DNA SELEX 1 aptamers; 100 nM human vWF A1 domain; ratio of fraction bound with target to without
Source text: (§1) When a significant positive ratio of binding of RNA in the presence of human or rabbit vWF A1 domain versus in the absence of protein was seen, the pools were cloned using the TOPO TA cloning kit (Invitrogen, Cat. #45-0641, Carlsbad, Calif.) according to the manufacturer's instructions. Round 9 and 12 pool templates were cloned and sequenced (125 total sequences), producing 48 unique clones. All unique clones were transcribed, desalted, 5-^32P end-labeled, and assayed in a 3-point dot blot screen (no protein target control, 100 nM human vWF A1 domain (SEQ ID NO 5, FIG. 3), or 100 nM rabbit vWF A1 domain (SEQ ID NO 6, FIG. 3). The data is presented in the third and fourth columns of Table 4 below as the ratio of the fraction of the aptamer bound to the nitrocellulose in the presence of the target protein to the fraction of aptamer bound in the absence of the target protein.
(§2) When a significant positive ratio of binding of RNA in the presence of human or rabbit vWF A1 domain (SEQ ID NOS 4 and 6, respectively) versus in the absence of protein was seen, the pools were cloned using the TOPO TA cloning kit (Invitrogen Cat. #45-0641, Carlsbad, Calif.) according to the manufacturer's instructions. Round 9 and 12 pool templates were cloned and sequenced (185 total sequences), producing 78 unique clones within 3 sequence families. All unique clones were transcribed, desalted, 5-^32P end-labeled, and assayed in a 3-point dot blot screen (no protein target control, 100 nM human vWF A1 domain (SEQ ID NO 5), or 100 nM rabbit vWF A1 domain (SEQ ID NO 6). The data are presented in the third and fourth columns of Table 9 below as the ratio of the fraction of the aptamer bound to the nitrocellulose in the presence of the target protein to the fraction of aptamer bound in the absence of the target protein. Of the three sequence families, members of Family #1 and #2 and two individual, non-family aptamers, bound to both human vWF domain A1 (SEQ ID NO 5) and rabbit vWF domain A1 (SEQ ID NO 6).
(§3) All unique clones were assayed in a 3-point dot blot screen (no protein target control, 100 nM human vWF A1 domain (SEQ ID NO 5), or 100 nM rabbit vWF A1 domain (SEQ ID NO 6). The data are presented in the third and fourth columns of Table 14 below as the ratio of the fraction of the aptamer bound to the nitrocellulose in the presence of the target protein to the fraction of aptamer bound in the absence of the target protein.

Sequence of human vWF A1 domain (SEQ ID NO 5) (P04275 with tags, fused parts or gaps T1381A): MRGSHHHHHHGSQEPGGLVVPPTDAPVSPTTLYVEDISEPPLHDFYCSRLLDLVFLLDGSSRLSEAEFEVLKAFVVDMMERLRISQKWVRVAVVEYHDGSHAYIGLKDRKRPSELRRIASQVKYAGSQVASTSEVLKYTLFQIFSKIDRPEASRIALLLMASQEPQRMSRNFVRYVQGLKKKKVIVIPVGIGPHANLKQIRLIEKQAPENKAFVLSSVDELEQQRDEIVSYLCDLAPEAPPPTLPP

Molecule | Screen- Human/No Protein
B1 | 1.78
B2 | 1.89
B3 | 2.01
B4 | 1.69
B5 | 1.27
B6 | 1.49
B7 | 1.49
B8 | 1.86
B9 | 1.17
B10 | 1.44
B11 | 1.19
B12 | 1.32
B13 | 1.25
B14 | 1.19
B15 | 1.32
B16 | 1.37
B17 | 1.41
B18 | 1.04
B19 | 1.94
B20 | 2.28
B21 | 1.66
B22 | 1.92

tested on: rabbit vWF A1 domain (SEQ ID NO 6); assay: 3-point dot blot screen, rabbit vWF A1 domain; type: binding; conditions: DNA SELEX 1 aptamers; 100 nM rabbit vWF A1 domain; ratio of fraction bound with target to without
Source text: as §1, §2, §3
When a significant positive ratio of binding of DNA in the presence of human or rabbit vWF A1 domain versus in the absence of protein was seen, the pools were cloned using the TOPO TA cloning kit (Invitrogen Cat. #45-0641, Carlsbad, Calif.) according to the manufacturer's instructions. Round 7 and 11 pool templates were cloned and sequenced (218 total sequences), producing 146 unique clones within 12 sequence families of which sequences from six families show vWF target binding activity. All unique clones were assayed twice in a 3-point dot blot screen (no protein target control, 20 nM full length human vWF (Calbiochem Cat. #681300, La Jolla, Calif.), or 20 nM rabbit vWF A1 domain. The data is presented in the third and fourth columns of Table 17 below as the ratio of the fraction of the aptamer bound to the nitrocellulose in the presence of the target protein to the fraction of aptamer bound in the absence of the target protein.

Sequence of rabbit vWF A1 domain (SEQ ID NO 6) (as listed by the source): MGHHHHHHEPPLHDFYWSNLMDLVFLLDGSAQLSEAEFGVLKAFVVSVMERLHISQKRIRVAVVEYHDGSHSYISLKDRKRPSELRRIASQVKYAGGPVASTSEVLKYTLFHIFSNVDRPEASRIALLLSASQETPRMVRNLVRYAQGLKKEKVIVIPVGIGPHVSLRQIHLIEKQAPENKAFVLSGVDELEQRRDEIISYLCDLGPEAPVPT

Molecule | Screen- Rabbit/No Protein
B1 | 1.79
B2 | 2.00
B3 | 1.91
B4 | 1.82
B5 | 1.27
B6 | 1.46
B7 | 1.19
B8 | 1.27
B9 | 1.24
B10 | 1.35
B11 | 1.26
B12 | 1.14
B13 | 1.29
B14 | 1.11
B15 | 1.36
B16 | 1.30
B17 | 1.34
B18 | 1.03
B19 | 1.55
B20 | 2.10
B21 | 1.41
B22 | 1.76
